Data reported in article doi:10.1101/2021.11.28.470279.

Target: ΔAPE1 E96Q/D210N (catalytically dead, crystallization construct) (Homo sapiens (human), UniProt P27695 44-318, C138A;E96Q;D210N)
Assay: crystal structure

Sequence of ΔAPE1 E96Q/D210N (catalytically dead, crystallization construct) (P27695 44-318 E96Q/C138A/D210N): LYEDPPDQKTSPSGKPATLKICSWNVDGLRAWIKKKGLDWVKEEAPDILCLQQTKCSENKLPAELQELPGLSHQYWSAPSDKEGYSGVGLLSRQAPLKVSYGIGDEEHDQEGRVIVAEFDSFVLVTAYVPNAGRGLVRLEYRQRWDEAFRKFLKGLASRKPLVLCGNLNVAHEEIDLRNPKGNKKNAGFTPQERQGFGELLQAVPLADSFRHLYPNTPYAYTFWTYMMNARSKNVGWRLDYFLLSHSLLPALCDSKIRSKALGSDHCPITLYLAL

B1: 21-mer nicked 3'-8oxoG opposite C (crystal) (dsDNA)
DNA 1: GGATCCGTCGACCGCATCAGC
DNA 2: GCTGATGCGG
DNA 3: TCGACGGATCC
modifications: 8-oxoG at 3' end of upstream strand (strand 2, written G); 5'-phosphate on downstream strand (strand 3)
  binding result: binds
